Assay in all cases: holdup assay
What all share (design): key: below the threshold = too weak to quantify, mostly under pKd 3.1 to 4
Common to all, as to details: plain residues with an end cap or a label only (N-terminal biotin on a linker: ado-ado)

Test [1] addresses T1, APBA1_2, Q02410.
T1 sequence (Q02410 742-832, limits assumed, looked up): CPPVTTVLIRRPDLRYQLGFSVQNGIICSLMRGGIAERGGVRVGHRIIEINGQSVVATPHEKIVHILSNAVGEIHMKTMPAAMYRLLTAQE

Test [2] concerns the target T2, APBA2_2, Q99767.
T2 sequence (Q99767 654-744, limits assumed, looked up): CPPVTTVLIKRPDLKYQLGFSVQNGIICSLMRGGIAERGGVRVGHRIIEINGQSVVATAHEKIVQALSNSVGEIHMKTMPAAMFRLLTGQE

The target in test [3] is T3, ARHGAP21, Q5T5U3.
T3 sequence (Q5T5U3 45-169, limits assumed, looked up): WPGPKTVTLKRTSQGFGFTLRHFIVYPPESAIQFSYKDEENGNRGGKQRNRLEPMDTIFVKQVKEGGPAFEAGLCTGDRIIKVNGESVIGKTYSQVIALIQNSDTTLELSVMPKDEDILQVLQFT

Test [4] addresses ARHGEF12, Q9NZN5-2.
Test [5] has as its target CASK, O14936.
In test [6] the target is DLG4_1, P78352.
The target in test [7] is FRMPD2_2, Q68DX3.
The target in test [8] is T4, GRIP1_5, Q9Y3R0.
T4 sequence (Q9Y3R0 568-668, limits assumed, looked up): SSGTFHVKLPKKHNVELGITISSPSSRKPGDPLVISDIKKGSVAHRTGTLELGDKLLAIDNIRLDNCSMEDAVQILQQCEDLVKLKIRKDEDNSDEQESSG

Test [9] concerns the target GRIP2_4, Q9C0E4.
Test [10] addresses Inadl_4, Q8NI35.
Test [11] deals with T5, LIN7B, Q9HAP6.
T5 sequence (Q9HAP6 88-185, limits assumed, looked up): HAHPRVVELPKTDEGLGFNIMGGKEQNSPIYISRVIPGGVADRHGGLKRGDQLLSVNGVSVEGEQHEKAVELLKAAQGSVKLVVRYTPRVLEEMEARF

Test [12] deals with MAGI2_6, Q86UL8.
Test [13] deals with MAST2, Q6P0Q8.
The target of test [14] is T6, MPDZ_5, O75970.
T6 sequence (O75970 695-796, limits assumed, looked up): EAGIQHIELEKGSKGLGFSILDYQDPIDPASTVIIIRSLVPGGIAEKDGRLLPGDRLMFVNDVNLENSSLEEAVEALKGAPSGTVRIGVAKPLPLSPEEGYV

For test [15], the target named is T7, MPP2, Q14168.
T7 sequence (Q14168 180-250, limits assumed, looked up): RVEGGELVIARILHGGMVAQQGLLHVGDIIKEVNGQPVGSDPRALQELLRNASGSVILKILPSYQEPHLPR

Test [16] has as its target T8, MPP7, Q5T2T1.
T8 sequence (Q5T2T1 134-230, limits assumed, looked up): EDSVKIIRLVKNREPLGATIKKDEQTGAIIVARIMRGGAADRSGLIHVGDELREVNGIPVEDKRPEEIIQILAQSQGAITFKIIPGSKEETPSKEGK

Test [17] deals with T9, NHERF3_3, Q5T2W1.
T9 sequence (Q5T2W1 238-333, limits assumed, looked up): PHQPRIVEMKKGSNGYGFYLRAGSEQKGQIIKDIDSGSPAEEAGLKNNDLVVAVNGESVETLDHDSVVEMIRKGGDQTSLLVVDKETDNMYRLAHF

Test [18] concerns the target T10, NHERF3_4, Q5T2W1.
T10 sequence (Q5T2W1 373-468, limits assumed, looked up): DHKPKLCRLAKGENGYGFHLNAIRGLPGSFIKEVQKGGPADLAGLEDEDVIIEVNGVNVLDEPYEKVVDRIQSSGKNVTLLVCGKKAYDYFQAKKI

Test [19] has as its target PDLIM1, O00151.
In test [20] the target is T11, PDZD7_3, Q9H5P4.
T11 sequence (Q9H5P4 857-944, limits assumed, looked up): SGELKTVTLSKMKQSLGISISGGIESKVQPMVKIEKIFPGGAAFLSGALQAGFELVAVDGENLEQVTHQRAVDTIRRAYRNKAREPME

For test [21], the target named is PTPN3, P26045.
Test [22] addresses T12, SIPA1L2, Q9P2F8.
T12 sequence (Q9P2F8 945-1036, limits assumed, looked up): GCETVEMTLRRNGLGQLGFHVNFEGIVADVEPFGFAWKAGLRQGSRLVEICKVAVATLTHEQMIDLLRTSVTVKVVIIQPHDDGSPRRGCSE

Test [23] addresses T13, SNTB1, Q13884.
T13 sequence (Q13884 107-205, limits assumed, looked up): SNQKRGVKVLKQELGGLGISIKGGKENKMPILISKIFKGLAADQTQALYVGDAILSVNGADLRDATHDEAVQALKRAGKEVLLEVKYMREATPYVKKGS

For test [24], the target named is T14, TX1BP3, O14907.
T14 sequence (O14907 10-122, limits assumed, looked up): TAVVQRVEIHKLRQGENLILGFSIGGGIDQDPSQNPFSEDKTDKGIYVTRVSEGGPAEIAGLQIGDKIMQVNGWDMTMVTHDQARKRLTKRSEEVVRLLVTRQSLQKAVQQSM

Sequence of MAGI2_6, Q86UL8 (Q86UL8 1141-1229): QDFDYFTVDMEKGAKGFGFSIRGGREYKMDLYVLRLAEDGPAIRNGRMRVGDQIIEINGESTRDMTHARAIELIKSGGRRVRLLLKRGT
Sequence of CASK, O14936 (O14936 487-570): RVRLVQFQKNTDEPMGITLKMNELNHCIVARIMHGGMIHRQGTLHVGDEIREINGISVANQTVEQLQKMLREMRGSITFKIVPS
Sequence of PDLIM1, O00151 (O00151 1-87): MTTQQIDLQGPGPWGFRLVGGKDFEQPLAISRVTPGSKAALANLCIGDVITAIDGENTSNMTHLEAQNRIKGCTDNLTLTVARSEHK
Sequence of GRIP2_4, Q9C0E4 (Q9C0E4 446-548): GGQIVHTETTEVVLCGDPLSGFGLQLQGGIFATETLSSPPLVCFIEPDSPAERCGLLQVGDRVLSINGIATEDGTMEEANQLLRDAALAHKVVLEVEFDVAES
Sequence of MAST2, Q6P0Q8 (Q6P0Q8 1099-1202): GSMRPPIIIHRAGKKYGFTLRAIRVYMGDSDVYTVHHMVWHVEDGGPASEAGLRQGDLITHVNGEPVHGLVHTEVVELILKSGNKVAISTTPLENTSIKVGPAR
Sequence of FRMPD2_2, Q68DX3 (Q68DX3 944-1038): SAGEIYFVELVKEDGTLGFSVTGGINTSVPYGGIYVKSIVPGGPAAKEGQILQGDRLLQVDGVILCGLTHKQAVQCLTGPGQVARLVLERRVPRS
Sequence of Inadl_4, Q8NI35 (Q8NI35 547-651): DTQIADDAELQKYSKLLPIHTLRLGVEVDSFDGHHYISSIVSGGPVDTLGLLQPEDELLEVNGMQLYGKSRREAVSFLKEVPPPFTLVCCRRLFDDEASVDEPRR
Sequence of ARHGEF12, Q9NZN5-2 (Q9NZN5 other isoform, or with tags, fused parts or gaps): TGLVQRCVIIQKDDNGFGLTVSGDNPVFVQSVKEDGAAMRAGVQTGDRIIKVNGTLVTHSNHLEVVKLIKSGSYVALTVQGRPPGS
Sequence of PTPN3, P26045 (P26045 505-587): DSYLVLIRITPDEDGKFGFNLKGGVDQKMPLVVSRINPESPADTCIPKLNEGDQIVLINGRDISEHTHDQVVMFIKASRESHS
Sequence of DLG4_1, P78352 (P78352 62-152): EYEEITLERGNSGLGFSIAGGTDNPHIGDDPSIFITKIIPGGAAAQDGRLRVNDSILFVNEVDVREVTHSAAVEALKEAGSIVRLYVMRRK

As a reminder, the pKd is −log10 of the Kd, conventionally taken in molar units. Regarding SFISKKEWYV [NECTIN1, Q15223], the pKd was 3.82 in test [1]; “below the threshold” in test [2]; 4.04 in [3]; “below the threshold” in [4]; “below the threshold” in test [5]; “below the threshold” in test [6]. The pKd in test [7] is 3.87; in test [8], “below the threshold”; in [9], “below the threshold”; in test [10], “below the threshold”; in test [11] it was 3.63; in test [12] it was 3.56. Further, the pKd in test [13] was 4.44; in [14], 4.61; in test [15] it was 4.46; in test [16], 5.11; in test [17], “below the threshold”; in test [18], “below the threshold”. In addition, the pKd result in test [19] was “below the threshold”; in [20], “below the threshold”; in test [21], 3.96; in test [22], “below the threshold”; in test [23], “below the threshold”; in test [24], “below the threshold”.

As to DRIQSCLSDA [SBF1, O95248], the pKd entry in test [1] is “below the threshold”; in [2], 3.48; in test [3], “below the threshold”; in test [4] it was “below the threshold”; in test [5] it was “below the threshold”; in [6], “below the threshold”. In addition, the pKd result was “below the threshold” in [7]; “below the threshold” in [8]; “below the threshold” in [9]; “below the threshold” in [10]; 3.72 in [11]; “below the threshold” in [12]. Besides, the pKd was 4.35 in test [13]; “below the threshold” in test [14]; “below the threshold” in test [15]; “below the threshold” in test [16]; “below the threshold” in test [17]; “below the threshold” in test [18]. The pKd entry in test [19] is “below the threshold”; in test [20], “below the threshold”; in test [21], 4.23; in test [22], “below the threshold”; in test [23], “below the threshold”; in test [24], 4.04.

Regarding PSVGSKKTVL [REELD1, A0A1B0GV85], the pKd is 3.56 in test [1]; “below the threshold” in test [2]; 3.93 in test [3]; 5.05 in test [4]; “below the threshold” in test [5]; “below the threshold” in test [6]. Further, the pKd result in test [7], in test [8], in test [9], in [10], in [11] and in [12] was “below the threshold” each time. Further, the pKd in test [13] was 5.05; in test [14], “below the threshold”; in test [15], “below the threshold”; in test [16], “below the threshold”; in test [17], “below the threshold”; in [18], 3.87. Moreover, the pKd result in [19] is “below the threshold”; in test [20], 4.67; in [21], 3.64; in test [22], “below the threshold”; in [23] it was 3.56; in test [24], “below the threshold”.

As for LKDDELKTKL [SLCO1A2, P46721], the pKd entry was “below the threshold” in test [1]; “below the threshold” in test [2]; 3.91 in test [3]; 4.62 in test [4]; “below the threshold” in [5]; “below the threshold” in test [6]. Also, the pKd entry in test [7], in [8], in test [9], in [10], in test [11] and in test [12] was “below the threshold” in each case. The pKd in test [13] is 5.28; in test [14] it was “below the threshold”; in test [15], “below the threshold”; in test [16] it was “below the threshold”; in test [17], 4.17; in test [18] it was 4.91. The pKd entry is “below the threshold” in test [19]; 4.43 in [20]; “below the threshold” in test [21]; “below the threshold” in test [22]; “below the threshold” in test [23]; “below the threshold” in test [24].

Values taken from publication PMC9482650, “Quantitative fragmentomics allow affinity mapping of interactomes” (Nature Communications, 2022).
